Sequences and labels used below:
B1: CE115HA000/GLS3000 T92P (antibody, IgG1, name in Kabat numbering, V domains shown)
VH: QVQLVESGGGVVQPGRSLRLSCAASGFTFSNAWMHWVRQAPGKGLEWVAQIKAKSNNYATYYAESVKGRFTISRDDSKNSLYLQMNSLKTEDTAVYYCRYVHYGAYYGVDAWGQGTTVTVSS
VL: DIVMTQSPLSLPVTPGEPASISCRSSQSLVHSNRNTYLHWYQQKPGQAPRLLIYKVSNRFSGVPDRFSGSGSGTDFTLKISRVEAEDVGVYYCGQGPQVPYTFGQGTKLEIK
notes: one-arm IgG1
B2: CE115HA000/GLS3000 V94I (antibody, IgG1, name in Kabat numbering, V domains shown)
VH: B1 VH
VL: B1 VL with P97T, V99I
notes: one-arm IgG1
B3: CE115HA000/GLS3000 V27cE (antibody, IgG1, name in Kabat numbering, V domains shown)
VH: B1 VH
VL: B1 VL with V30E, P97T
notes: one-arm IgG1
B4: CE115HA000/GLS3000 V94N (antibody, IgG1, name in Kabat numbering, V domains shown)
VH: B1 VH
VL: B1 VL with P97T, V99N
notes: one-arm IgG1
B5: CE115HA000/GLS3000 V94E (antibody, IgG1, name in Kabat numbering, V domains shown)
VH: B1 VH
VL: B1 VL with P97T, V99E
notes: one-arm IgG1
B6: CE115HA000/GLS3000 V51E (antibody, IgG1, name in Kabat numbering, V domains shown)
VH: B1 VH
VL: B1 VL with V56E, P97T
notes: one-arm IgG1
B7: CE115HA000/GLS3000 Y96H (antibody, IgG1, name in Kabat numbering, V domains shown)
VH: B1 VH
VL: B1 VL with P97T, Y101H
notes: one-arm IgG1
B8: CE115HA000/GLS3000 Y96L (antibody, IgG1, name in Kabat numbering, V domains shown)
VH: B1 VH
VL: B1 VL with P97T, Y101L
notes: one-arm IgG1
B9: CE115HA000/GLS3000 V94K (antibody, IgG1, name in Kabat numbering, V domains shown)
VH: B1 VH
VL: B1 VL with P97T, V99K
notes: one-arm IgG1
B10: CE115HA000/GLS3000 Y32F (antibody, IgG1, name in Kabat numbering, V domains shown)
VH: B1 VH
VL: B1 VL with Y37F, P97T
notes: one-arm IgG1
B11: CE115HA000/GLS3000 T92S (antibody, IgG1, name in Kabat numbering, V domains shown)
VH: B1 VH
VL: B1 VL with P97S
notes: one-arm IgG1
B12: CE115HA000/GLS3000 T97P (antibody, IgG1, name in Kabat numbering, V domains shown)
VH: B1 VH
VL: B1 VL with P97T, T102P
notes: one-arm IgG1
B13: CE115HA000/GLS3000 V27cL (antibody, IgG1, name in Kabat numbering, V domains shown)
VH: B1 VH
VL: B1 VL with V30L, P97T
notes: one-arm IgG1
B14: CE115HA000/GLS3000 V94A (antibody, IgG1, name in Kabat numbering, V domains shown)
VH: B1 VH
VL: B1 VL with P97T, V99A
notes: one-arm IgG1
B15: CE115HA000/GLS3000 V27cY (antibody, IgG1, name in Kabat numbering, V domains shown)
VH: B1 VH
VL: B1 VL with V30Y, P97T
notes: one-arm IgG1
B16: CE115HA000/GLS3000 V27cD (antibody, IgG1, name in Kabat numbering, V domains shown)
VH: B1 VH
VL: B1 VL with V30D, P97T
notes: one-arm IgG1
B17: CE115HA000/GLS3000 Y96F (antibody, IgG1, name in Kabat numbering, V domains shown)
VH: B1 VH
VL: B1 VL with P97T, Y101F
notes: one-arm IgG1
B18: CE115HA000/GLS3000 V51G (antibody, IgG1, name in Kabat numbering, V domains shown)
VH: B1 VH
VL: B1 VL with V56G, P97T
notes: one-arm IgG1
B19: CE115HA000/GLS3000 V94G (antibody, IgG1, name in Kabat numbering, V domains shown)
VH: B1 VH
VL: B1 VL with P97T, V99G
notes: one-arm IgG1
B20: CE115HA000/GLS3000 V94Q (antibody, IgG1, name in Kabat numbering, V domains shown)
VH: B1 VH
VL: B1 VL with P97T, V99Q
notes: one-arm IgG1
B21: CE115HA000/GLS3000 V94D (antibody, IgG1, name in Kabat numbering, V domains shown)
VH: B1 VH
VL: B1 VL with P97T, V99D
notes: one-arm IgG1
B22: CE115HA000/GLS3000 Y32D (antibody, IgG1, name in Kabat numbering, V domains shown)
VH: B1 VH
VL: B1 VL with Y37D, P97T
notes: one-arm IgG1
B23: CE115HA000/GLS3000 Y96D (antibody, IgG1, name in Kabat numbering, V domains shown)
VH: B1 VH
VL: B1 VL with P97T, Y101D
notes: one-arm IgG1
B24: CE115HA000/GLS3000 V27cS (antibody, IgG1, name in Kabat numbering, V domains shown)
VH: B1 VH
VL: B1 VL with V30S, P97T
notes: one-arm IgG1
B25: CE115HA000/GLS3000 V27cI (antibody, IgG1, name in Kabat numbering, V domains shown)
VH: B1 VH
VL: B1 VL with V30I, P97T
notes: one-arm IgG1
B26: CE115HA000/GLS3000 Y32P (antibody, IgG1, name in Kabat numbering, V domains shown)
VH: B1 VH
VL: B1 VL with Y37P, P97T
notes: one-arm IgG1
B27: CE115HA000/GLS3000 V94Y (antibody, IgG1, name in Kabat numbering, V domains shown)
VH: B1 VH
VL: B1 VL with P97T, V99Y
notes: one-arm IgG1
B28: CE115HA000/GLS3000 V94W (antibody, IgG1, name in Kabat numbering, V domains shown)
VH: B1 VH
VL: B1 VL with P97T, V99W
notes: one-arm IgG1
B29: CE115HA000/GLS3000 V51I (antibody, IgG1, name in Kabat numbering, V domains shown)
VH: B1 VH
VL: B1 VL with V56I, P97T
notes: one-arm IgG1
B30: CE115HA000/GLS3000 V94S (antibody, IgG1, name in Kabat numbering, V domains shown)
VH: B1 VH
VL: B1 VL with P97T, V99S
notes: one-arm IgG1
B31: CE115HA000/GLS3000 V94T (antibody, IgG1, name in Kabat numbering, V domains shown)
VH: B1 VH
VL: B1 VL with P97T, V99T
notes: one-arm IgG1
B32: CE115HA000/GLS3000 V94H (antibody, IgG1, name in Kabat numbering, V domains shown)
VH: B1 VH
VL: B1 VL with P97T, V99H
notes: one-arm IgG1
B33: CE115HA000/GLS3000 V94F (antibody, IgG1, name in Kabat numbering, V domains shown)
VH: B1 VH
VL: B1 VL with P97T, V99F
notes: one-arm IgG1
B34: CE115HA000/GLS3000 T92Y (antibody, IgG1, name in Kabat numbering, V domains shown)
VH: B1 VH
VL: B1 VL with P97Y
notes: one-arm IgG1
B35: CE115HA000/GLS3000 V94M (antibody, IgG1, name in Kabat numbering, V domains shown)
VH: B1 VH
VL: B1 VL with P97T, V99M
notes: one-arm IgG1
B36: CE115HA000/GLS3000 V51D (antibody, IgG1, name in Kabat numbering, V domains shown)
VH: B1 VH
VL: B1 VL with V56D, P97T
notes: one-arm IgG1
B37: CE115HA000/GLS3000 Y96E (antibody, IgG1, name in Kabat numbering, V domains shown)
VH: B1 VH
VL: B1 VL with P97T, Y101E
notes: one-arm IgG1
B38: CE115HA000/GLS3000 V27cP (antibody, IgG1, name in Kabat numbering, V domains shown)
VH: B1 VH
VL: B1 VL with V30P, P97T
notes: one-arm IgG1
B39: CE115HA000/GLS3000 V94L (antibody, IgG1, name in Kabat numbering, V domains shown)
VH: B1 VH
VL: B1 VL with P97T, V99L
notes: one-arm IgG1
B40: CE115HA000/GLS3000 V94P (antibody, IgG1, name in Kabat numbering, V domains shown)
VH: B1 VH
VL: B1 VL with P97T, V99P
notes: one-arm IgG1
B41: CE115HA000/GLS3000 V51P (antibody, IgG1, name in Kabat numbering, V domains shown)
VH: B1 VH
VL: B1 VL with V56P, P97T
notes: one-arm IgG1
B42: CE115HA000/GLS3000 Y32A (antibody, IgG1, name in Kabat numbering, V domains shown)
VH: B1 VH
VL: B1 VL with Y37A, P97T
notes: one-arm IgG1
B43: CE115HA000/GLS3000 V94R (antibody, IgG1, name in Kabat numbering, V domains shown)
VH: B1 VH
VL: B1 VL with P97T, V99R
notes: one-arm IgG1

Substitutions are numbered along the chain they refer to.

T1 sequence (P07766 23-126): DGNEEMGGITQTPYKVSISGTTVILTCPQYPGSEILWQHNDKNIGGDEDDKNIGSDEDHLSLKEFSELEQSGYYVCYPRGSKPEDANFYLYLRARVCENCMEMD

This assay has as its target T1, CD3 epsilon homodimer protein (UniProt P07766 23-126).
T1 construct: also called CD3 (CD3 epsilon)
Put plainly: SPR, antibody over immobilised CD3e homodimer.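 Further: SPR at 25 °C with CD3 epsilon homodimer amine-coupled to a CM4 sensor chip and antibody flowed over as analyte in HBS-EP+ running buffer.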
Consider B1, for which the “KD ratio to GLS3000” value worked out at 26.7. On to B2, for which the “KD ratio to GLS3000” value was found to be 1.46. For the molecule B3, the “KD ratio to GLS3000” value is 1.1. Turning to B4, the “KD ratio to GLS3000” value is 0.96. As to B5, the “KD ratio to GLS3000” value is 1.18. To B6 belongs 0.88; to B7, 80.3. To B8 belongs 1.84; to B9, 0.91. Consider B10, for which the “KD ratio to GLS3000” value was 4.51. As for B11, the “KD ratio to GLS3000” value worked out at 0.81. As to B12, the “KD ratio to GLS3000” value stood at 3.35. In the case of B13, the “KD ratio to GLS3000” value came out at 0.81. With B14, the “KD ratio to GLS3000” value was found to be 1.05. To B15 belongs 1.25.

For B16, the “KD ratio to GLS3000” value was found to be 3.21. In the case of B17, the “KD ratio to GLS3000” value is 0.86. Under B18 stands 0.83; under B19, 2.59. On to B20, for which the “KD ratio to GLS3000” value was found to be 1.1. In the case of B21, the “KD ratio to GLS3000” value stood at 1.05. Take B22: the “KD ratio to GLS3000” value amounted to 25.9. For B23, the “KD ratio to GLS3000” value was found to be 40.9. For B24, the “KD ratio to GLS3000” value turned out to be 3.04. To B25 belongs 1.03. In the case of B26, the “KD ratio to GLS3000” value is 62. Under B27 stands 2.45. To B28 belongs 1.81; to B29, 0.69; to B30, 0.81. As to B31, the “KD ratio to GLS3000” value was determined as 1.06. B32: the “KD ratio to GLS3000” value turned out to be 1.16. On to B33, for which the “KD ratio to GLS3000” value was 1.75. On to B34, for which the “KD ratio to GLS3000” value was found to be 2.55. Under B35 stands 2.74. Take B36: the “KD ratio to GLS3000” value is 1.5. Under B37 stands 46.8; under B38, 3.71; under B39, 3.06. In the case of B40, the “KD ratio to GLS3000” value came out at 1.1. As for B41, the “KD ratio to GLS3000” value came out at 6. In the case of B42, the “KD ratio to GLS3000” value is 66.8.

As to B43, the “KD ratio to GLS3000” value turned out to be 1.11.

These data come from patent US20210388087A1 (Chugai, published 2021).
